According to patent US20230304010A1 (AADIGEN, published 2023):
“And” between values parts separate entries of the source, which are not always exact repeats. Equal entries are not always repeated.

Legend:
SARS-CoV-2 Spike [1] = target: T1, SARS-CoV-2 Spike (SARS-CoV-2, UniProt P0DTC2 16-685)
SARS-CoV-2 Spike [2] = target: T1, SARS-CoV-2 Spike; assay: inhibitor screening kit, ADGN-106 nanoparticles (Example 6, section A)
SARS-CoV-2 Spike [3] = target: T1, SARS-CoV-2 Spike; assay: inhibitor screening kit, ADGN-106 nanoparticles (Example 6, section B)

| Binder | IC50 (SARS-CoV-2 Spike [1]) | fold more potent than SBP-1-ADGN-106/ADGN-106 complex (SARS-CoV-2 Spike [2]) [fold] | fold more potent than SBP-1 peptide/ADGN-106 complex (SARS-CoV-2 Spike [2]) [fold] | fold more potent than SBP-1-ADGN-106/ADGN-106 complex (SARS-CoV-2 Spike [3]) [fold] | fold more potent than SBP-1 peptide/ADGN-106 complex (SARS-CoV-2 Spike [3]) [fold] |
| --- | --- | --- | --- | --- | --- |
| Seq28 (LNCOV-20)/ADGN-106 nanoparticle complex (other) peptide 1: KTFLDKFNHEAEDLFPGPKWSAFLKEQSTLAQMYG peptide 2: LWRALWRLWRSLWRLLWK | 2.7 nM and 2.1 nM | 6 | 40 | 4 | 35 |
| Seq27 (LNCOV-27)/ADGN-106 nanoparticle complex (other) peptide 1: EQAKTFLDKFNHEAEDLFPKWSAFLKEQSTLAQMYG peptide 2: LWRALWRLWRSLWRLLWK | 1.8 nM and 1.1 nM | 6 | 40 | 4 | 35 |
